The supplement of paper PMC10065799, “High-throughput profiling of sequence recognition by tyrosine kinases and SH2 domains using bacterial peptide display” (eLife, 2023)

Assays:
SHP2-C SH2 = experiment: SH2 binding enrichment of the phosphorylated peptide, bacterial display (enrichment ratio); higher = better substrate or ligand; peptides without Tyr show the background
Grb2 SH2 = Grb2 SH2 (UniProt P62993); experiment: as above
c-Src SH2 = experiment: as above
c-Abl (mouse) = experiment: phosphorylation enrichment, bacterial display (enrichment ratio); higher = better substrate or ligand; peptides without Tyr show the background
Hck = Hck (UniProt P08631); experiment: as above
Hck, sequence (P08631 whole entry, looked up): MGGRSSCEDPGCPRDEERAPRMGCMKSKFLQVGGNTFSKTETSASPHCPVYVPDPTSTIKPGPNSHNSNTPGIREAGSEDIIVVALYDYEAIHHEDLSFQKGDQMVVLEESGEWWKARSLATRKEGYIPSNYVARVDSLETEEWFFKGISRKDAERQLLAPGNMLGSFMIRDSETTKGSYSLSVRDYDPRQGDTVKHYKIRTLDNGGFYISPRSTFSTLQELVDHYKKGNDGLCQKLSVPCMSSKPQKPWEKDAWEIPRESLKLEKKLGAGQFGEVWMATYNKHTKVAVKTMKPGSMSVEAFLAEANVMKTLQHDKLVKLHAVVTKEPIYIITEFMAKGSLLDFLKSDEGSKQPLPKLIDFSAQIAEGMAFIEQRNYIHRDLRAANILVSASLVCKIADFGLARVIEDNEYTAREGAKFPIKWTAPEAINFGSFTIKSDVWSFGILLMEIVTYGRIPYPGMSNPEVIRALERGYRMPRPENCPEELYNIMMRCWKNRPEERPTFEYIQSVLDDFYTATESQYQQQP

c-Src = experiment: as above
AncSZ = experiment: as above
EPHB1 = EPHB1 (UniProt P54762); experiment: as above
Jak2 = Jak2 (UniProt O60674); experiment: as above
Fes = Fes (UniProt P07332); experiment: as above
Fes, sequence (P07332 whole entry, looked up): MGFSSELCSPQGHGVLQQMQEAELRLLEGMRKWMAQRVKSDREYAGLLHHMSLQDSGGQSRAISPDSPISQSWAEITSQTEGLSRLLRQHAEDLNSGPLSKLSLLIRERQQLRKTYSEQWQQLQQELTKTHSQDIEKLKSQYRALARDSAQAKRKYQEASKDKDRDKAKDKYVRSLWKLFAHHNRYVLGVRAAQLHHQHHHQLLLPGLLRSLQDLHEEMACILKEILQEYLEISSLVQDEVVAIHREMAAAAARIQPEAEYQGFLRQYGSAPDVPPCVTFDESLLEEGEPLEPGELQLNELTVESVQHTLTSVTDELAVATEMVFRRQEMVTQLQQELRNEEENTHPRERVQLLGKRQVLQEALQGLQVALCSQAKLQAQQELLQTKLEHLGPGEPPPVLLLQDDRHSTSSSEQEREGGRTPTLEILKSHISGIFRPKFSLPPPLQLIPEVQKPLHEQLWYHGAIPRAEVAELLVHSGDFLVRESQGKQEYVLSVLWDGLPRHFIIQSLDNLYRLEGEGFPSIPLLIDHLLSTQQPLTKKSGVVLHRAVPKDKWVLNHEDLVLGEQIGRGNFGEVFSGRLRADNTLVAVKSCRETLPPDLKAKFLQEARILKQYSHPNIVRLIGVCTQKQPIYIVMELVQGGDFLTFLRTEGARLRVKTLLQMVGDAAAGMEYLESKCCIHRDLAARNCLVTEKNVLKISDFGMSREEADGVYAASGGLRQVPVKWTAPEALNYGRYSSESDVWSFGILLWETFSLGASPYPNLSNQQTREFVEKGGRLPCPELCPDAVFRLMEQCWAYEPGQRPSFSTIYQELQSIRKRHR

Fer (mouse) = experiment: as above
EPHB2 = EPHB2 (UniProt P29323); experiment: as above
EPHB2, sequence (P29323 whole entry, looked up): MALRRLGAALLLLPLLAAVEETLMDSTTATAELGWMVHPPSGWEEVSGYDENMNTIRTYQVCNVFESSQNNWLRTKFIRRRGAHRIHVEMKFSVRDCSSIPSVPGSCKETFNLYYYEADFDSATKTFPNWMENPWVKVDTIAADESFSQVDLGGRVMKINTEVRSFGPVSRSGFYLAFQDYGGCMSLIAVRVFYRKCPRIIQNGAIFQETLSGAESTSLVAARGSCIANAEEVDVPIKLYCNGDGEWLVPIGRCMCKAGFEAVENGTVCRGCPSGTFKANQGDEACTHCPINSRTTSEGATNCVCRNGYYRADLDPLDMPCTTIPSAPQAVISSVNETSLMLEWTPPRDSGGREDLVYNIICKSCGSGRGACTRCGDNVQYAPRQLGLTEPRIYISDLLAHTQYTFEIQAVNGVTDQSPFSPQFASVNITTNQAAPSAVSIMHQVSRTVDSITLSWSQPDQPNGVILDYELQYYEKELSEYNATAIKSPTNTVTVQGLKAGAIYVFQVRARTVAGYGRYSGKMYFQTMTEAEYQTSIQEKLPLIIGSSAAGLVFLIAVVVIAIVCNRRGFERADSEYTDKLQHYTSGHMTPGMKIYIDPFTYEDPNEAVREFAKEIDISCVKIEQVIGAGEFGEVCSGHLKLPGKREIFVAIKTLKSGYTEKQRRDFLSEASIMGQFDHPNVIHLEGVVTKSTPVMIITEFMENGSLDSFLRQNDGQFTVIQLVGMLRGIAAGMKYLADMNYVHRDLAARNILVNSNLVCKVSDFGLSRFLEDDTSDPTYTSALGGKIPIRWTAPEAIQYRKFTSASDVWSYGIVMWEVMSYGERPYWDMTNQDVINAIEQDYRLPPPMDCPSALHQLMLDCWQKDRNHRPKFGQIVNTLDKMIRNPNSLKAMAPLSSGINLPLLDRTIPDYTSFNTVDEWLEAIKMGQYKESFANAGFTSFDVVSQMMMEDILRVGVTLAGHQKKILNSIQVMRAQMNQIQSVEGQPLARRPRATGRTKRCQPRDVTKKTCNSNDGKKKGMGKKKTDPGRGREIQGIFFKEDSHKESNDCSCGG

MERTK = MERTK (UniProt Q12866); experiment: as above
MERTK, sequence (Q12866 whole entry, looked up): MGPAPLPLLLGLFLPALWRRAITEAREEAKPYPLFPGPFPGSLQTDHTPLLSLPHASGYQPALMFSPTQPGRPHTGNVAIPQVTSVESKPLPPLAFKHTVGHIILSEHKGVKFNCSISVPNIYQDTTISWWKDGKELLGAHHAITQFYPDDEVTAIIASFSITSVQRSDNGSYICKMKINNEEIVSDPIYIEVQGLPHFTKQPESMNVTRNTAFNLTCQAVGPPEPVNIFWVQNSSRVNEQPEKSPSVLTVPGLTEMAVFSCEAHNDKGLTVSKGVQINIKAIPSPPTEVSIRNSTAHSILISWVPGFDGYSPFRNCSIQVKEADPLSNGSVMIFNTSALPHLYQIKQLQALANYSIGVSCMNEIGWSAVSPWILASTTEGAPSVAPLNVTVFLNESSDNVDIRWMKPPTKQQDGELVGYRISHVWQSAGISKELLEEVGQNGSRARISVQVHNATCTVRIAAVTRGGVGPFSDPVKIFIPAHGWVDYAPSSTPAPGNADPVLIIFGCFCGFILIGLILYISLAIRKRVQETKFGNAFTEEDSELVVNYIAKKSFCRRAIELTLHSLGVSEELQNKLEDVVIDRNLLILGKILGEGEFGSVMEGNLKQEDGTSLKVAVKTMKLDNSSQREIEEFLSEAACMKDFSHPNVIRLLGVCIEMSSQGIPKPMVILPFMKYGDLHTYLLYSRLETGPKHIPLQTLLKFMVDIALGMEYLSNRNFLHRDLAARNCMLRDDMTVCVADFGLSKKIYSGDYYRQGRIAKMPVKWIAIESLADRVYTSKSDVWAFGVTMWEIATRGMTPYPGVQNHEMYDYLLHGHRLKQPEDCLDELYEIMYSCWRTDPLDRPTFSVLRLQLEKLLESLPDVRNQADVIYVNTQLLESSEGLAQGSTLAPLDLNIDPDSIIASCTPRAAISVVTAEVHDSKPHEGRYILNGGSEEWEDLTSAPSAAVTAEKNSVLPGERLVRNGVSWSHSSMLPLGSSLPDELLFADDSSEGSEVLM

Fyn = Fyn (UniProt P06241); experiment: as above
Fyn, sequence (P06241 whole entry, looked up): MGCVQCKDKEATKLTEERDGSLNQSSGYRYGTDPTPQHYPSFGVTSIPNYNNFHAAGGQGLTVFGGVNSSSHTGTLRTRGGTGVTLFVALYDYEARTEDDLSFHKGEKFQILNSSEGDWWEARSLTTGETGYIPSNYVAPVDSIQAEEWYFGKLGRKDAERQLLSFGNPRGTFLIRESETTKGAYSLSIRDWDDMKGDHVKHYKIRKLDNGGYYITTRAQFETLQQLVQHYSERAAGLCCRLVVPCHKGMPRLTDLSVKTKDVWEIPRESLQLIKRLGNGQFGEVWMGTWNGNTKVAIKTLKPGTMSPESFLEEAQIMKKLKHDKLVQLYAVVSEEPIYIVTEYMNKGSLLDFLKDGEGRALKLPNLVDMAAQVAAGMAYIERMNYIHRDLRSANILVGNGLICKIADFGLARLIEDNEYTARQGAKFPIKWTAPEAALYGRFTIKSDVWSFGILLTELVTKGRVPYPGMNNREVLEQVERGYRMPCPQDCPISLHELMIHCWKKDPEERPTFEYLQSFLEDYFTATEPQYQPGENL

FGFR1 = FGFR1 (UniProt P11362); experiment: as above
FGFR1, sequence (P11362 whole entry, looked up): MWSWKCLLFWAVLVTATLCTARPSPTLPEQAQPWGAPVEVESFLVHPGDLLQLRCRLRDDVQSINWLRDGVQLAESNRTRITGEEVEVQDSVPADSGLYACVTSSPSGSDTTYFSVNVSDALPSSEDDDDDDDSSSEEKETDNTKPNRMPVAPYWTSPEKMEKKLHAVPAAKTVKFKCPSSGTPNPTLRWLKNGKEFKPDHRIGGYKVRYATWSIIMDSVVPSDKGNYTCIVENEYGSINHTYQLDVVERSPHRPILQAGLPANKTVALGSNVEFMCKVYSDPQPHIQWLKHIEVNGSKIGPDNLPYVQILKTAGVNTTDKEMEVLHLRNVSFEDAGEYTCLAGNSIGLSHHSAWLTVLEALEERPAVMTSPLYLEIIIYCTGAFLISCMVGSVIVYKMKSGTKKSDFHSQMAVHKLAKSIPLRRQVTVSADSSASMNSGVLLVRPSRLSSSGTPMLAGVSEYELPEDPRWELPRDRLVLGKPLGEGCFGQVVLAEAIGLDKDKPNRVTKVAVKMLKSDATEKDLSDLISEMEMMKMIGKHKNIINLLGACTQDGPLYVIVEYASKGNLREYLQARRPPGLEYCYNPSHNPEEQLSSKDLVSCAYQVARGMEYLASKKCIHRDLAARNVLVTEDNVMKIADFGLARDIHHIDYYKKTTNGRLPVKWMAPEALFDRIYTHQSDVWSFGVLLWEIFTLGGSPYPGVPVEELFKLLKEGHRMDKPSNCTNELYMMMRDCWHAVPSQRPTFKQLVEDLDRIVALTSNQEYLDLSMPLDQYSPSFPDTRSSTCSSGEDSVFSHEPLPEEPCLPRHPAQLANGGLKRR

FGFR3 = FGFR3 (UniProt P22607); experiment: as above
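Wherever SH2 binding enrichment of the phosphorylated peptide, bacterial display is given: peptide library displayed on the E. coli surface as eCPX fusions, selected cells deep-sequenced, score is each peptide's frequency after selection divided by its frequency in the input.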
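Wherever phosphorylation enrichment, bacterial display is given: 11-residue human phosphosite peptides and single-mutation variants displayed on the E. coli surface, counted by deep sequencing, each peptide's frequency after selection divided by its frequency in the unselected input library; frequency after pTyr selection over input frequency; kinase dosed for 20-30% of maximal phosphorylation in three min.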

SH2 binding enrichment (SHP2-C SH2)	SH2 binding enrichment (Grb2 SH2)	SH2 binding enrichment (c-Src SH2)	Sequence	phosphorylation enrichment (c-Abl (mouse))	phosphorylation enrichment (Hck)	phosphorylation enrichment (c-Src)	phosphorylation enrichment (AncSZ)	phosphorylation enrichment (EPHB1)	phosphorylation enrichment (Jak2)	phosphorylation enrichment (Fes)	phosphorylation enrichment (Fer (mouse))	phosphorylation enrichment (EPHB2)	phosphorylation enrichment (MERTK)	phosphorylation enrichment (Fyn)	phosphorylation enrichment (FGFR1)	phosphorylation enrichment (FGFR3)
0.728	19.9	2.96	PTYENYANSTQ [SLC12A3_Y70_H69N]	0.418	2.12	5.43	1.06	4.39	0.518	0.743	0.69	3.36	0.927	4.03	0.593	0.555
0.694	0.764	0.429	LKTNCYNNGKD [DNMT3B_Y404]	3.04	0.879	0.572	1.12	1.09	1.24	1.21	0.68	0.818	0.601	0.649	0.685	1.12
0.663	1.15	0.519	RKETFYILSCR [GUCY2C_Y681_T682I]	1.1	0.355	0.448	1.44	0.546	0.953	1.59	0.665	0.474	0.525	0.373	0.553	0.917
0.463	0.935	0.521	RTMPDYTSFNT [EPHB2_Y912_I909M]	0.618	0.591	1.31	1.38	0.724	0.692	0.947	0.705	0.961	0.459	1.07	1.05	1
0.582	0.872	0.543	ASYGPNTRVQS [FOXL2_Y258_Y258N]	0.559	0.454	0.478	0.537	0.474	0.515	0.596	0.448	0.407	0.435	0.41	0.444	0.407
0.85	0.803	0.678	NRVEIYEKTVE [CYFIP1_Y108]	0.919	0.628	0.599	1.07	0.713	1.27	1.18	0.582	0.654	0.5	0.511	0.523	0.696
0.44	1.06	0.636	RLRVVYPWTQR [HBB_Y36_L33R]	0.484	0.364	0.382	0.688	0.367	0.494	0.711	0.335	0.363	0.819	0.6	0.422	0.568
0.681	0.751	1.77	ICGVSYDEYRY [CFTR_Y512_F508C]	0.943	0.633	1.11	1.46	0.733	1.26	1.58	0.599	0.704	0.463	0.637	0.478	1.01
1.45	1.37	1.21	KASGKYFAMKI [AKT3_Y173_YF]	0.447	0.323	0.351	0.495	0.372	0.508	0.626	0.34	0.338	0.367	0.344	0.347	0.421
0.492	0.725	0.418	EYGRRYGFSCQ [CCDC93_Y209_R213C]	0.881	0.617	0.483	0.931	0.59	1.2	1.12	0.526	0.594	0.476	0.53	0.526	0.696
1.23	1.47	1.2	QGIFGYHHFMQ [UFSP2_Y287_YF]	1.13	0.692	0.531	1.32	0.794	1.27	1.41	0.857	0.59	0.549	0.615	0.838	0.93
0.489	0.721	0.39	RLRAAYNLVKR [PFKM_Y103]	0.815	0.698	0.653	1.16	0.571	0.766	1.04	0.771	0.715	0.559	0.632	0.658	1.01
0.633	0.771	0.522	LQKPMYEVQWK [KIT_Y553]	1.36	0.788	0.617	1.29	2.63	1.42	1.32	0.83	0.912	1.28	0.81	0.851	1.49
0.659	0.835	0.516	MSRDVYSTDFF [NTRK2_Y702_YF]	0.568	1.28	2.73	0.691	0.756	0.728	0.732	0.486	0.774	5.05	2.65	1.06	0.718
